Key:
α5β1 integrin = biological target: T1, α5β1 integrin (Mus musculus, UniProt P09055+P11688); test: Crosslinking/extraction immunostaining of bound integrin; type: cell-based, murine; settings: 4 h on saturated ligand-functionalized SAMs
T1 construct: endogenous in cells; host or cells: MC3T3-E1 murine osteoblast-like cells
Experimental: (§1) Surfaces were prepared on either 6-well plate lids or 35 mm tissue culture dishes, and cells seeded at 75 cells/mm^2 in serum-containing media for 4 h at 37° C. For integrin staining, a cross-linking/extraction biochemical method that selectively isolates bound integrins was employed. Cells were washed, and 1.0 mM DTSSP (Pierce) was added for 15 min to cross-link ligated integrins. After quenching with 50 mM Tris, uncrosslinked cellular components were extracted in 0.1% SDS supplemented with protease inhibitors (350 μg/ml PMSF). Samples were then blocked in 5% FBS for 1 h and incubated with integrin-specific antibodies for 1 h at 37° C. Fluorochrome-labeled secondary antibodies were then incubated for 1 h at 37° C. Following washing, samples were mounted on slides with Gel/Mount mounting media (Biomeda, Foster City, Calif.). For staining of focal adhesions, cells were extracted in 0.5% Triton X-100 in ice-cold cytoskeleton buffer (50 mM NaCl, 3 mM MgCl2, 150 mM sucrose, 20 μg/ml aprotonin, 1 μg/ml leupeptin, 1 mM PMSF, 50 mM Tris, pH 6.8) for 2 min and fixed in cold 3.7% formaldehyde in DPBS for 5 min. Cultures were blocked, subsequently incubated in anti-vinculin monoclonal antibody (1:70 in 5% FBS) and fluorochrome-labeled secondary antibodies for 1 h, and samples mounted on slides.
(§2) Since MC3T3-E1 cells assemble robust focal adhesions containing clustered integrins and intracellular structural and signaling proteins, integrin binding and focal adhesion assembly on the engineered interfaces was examined by staining for different integrin subunits and vinculin, which localizes to focal adhesions. MC3T3-E1 cells were allowed to adhere on each saturated ligand-functionalized support for 4 h and integrin binding was evaluated via a crosslinking/extraction and immunostaining protocol, which isolates integrins ligated to the ligand. […] The crosslinking and extraction technique relies in coupling free amines on both the receptor and ligand. Since the tethered RGD has no free amine, the αvβ3 staining in the RGD surfaces is attributed to focal adhesions that were not completely extracted. […] Both surfaces assembled focal adhesions containing vinculin.

αvβ3 integrin = biological target: T2, αvβ3 integrin (Mus musculus, UniProt O54890+P43406); test: as above; type: cell-based, murine; settings: 4 h on saturated ligand-functionalized SAMs
T2 construct: endogenous in cells; host or cells: MC3T3-E1 murine osteoblast-like cells
T2 sequence (P43406 31-885 limits assumed): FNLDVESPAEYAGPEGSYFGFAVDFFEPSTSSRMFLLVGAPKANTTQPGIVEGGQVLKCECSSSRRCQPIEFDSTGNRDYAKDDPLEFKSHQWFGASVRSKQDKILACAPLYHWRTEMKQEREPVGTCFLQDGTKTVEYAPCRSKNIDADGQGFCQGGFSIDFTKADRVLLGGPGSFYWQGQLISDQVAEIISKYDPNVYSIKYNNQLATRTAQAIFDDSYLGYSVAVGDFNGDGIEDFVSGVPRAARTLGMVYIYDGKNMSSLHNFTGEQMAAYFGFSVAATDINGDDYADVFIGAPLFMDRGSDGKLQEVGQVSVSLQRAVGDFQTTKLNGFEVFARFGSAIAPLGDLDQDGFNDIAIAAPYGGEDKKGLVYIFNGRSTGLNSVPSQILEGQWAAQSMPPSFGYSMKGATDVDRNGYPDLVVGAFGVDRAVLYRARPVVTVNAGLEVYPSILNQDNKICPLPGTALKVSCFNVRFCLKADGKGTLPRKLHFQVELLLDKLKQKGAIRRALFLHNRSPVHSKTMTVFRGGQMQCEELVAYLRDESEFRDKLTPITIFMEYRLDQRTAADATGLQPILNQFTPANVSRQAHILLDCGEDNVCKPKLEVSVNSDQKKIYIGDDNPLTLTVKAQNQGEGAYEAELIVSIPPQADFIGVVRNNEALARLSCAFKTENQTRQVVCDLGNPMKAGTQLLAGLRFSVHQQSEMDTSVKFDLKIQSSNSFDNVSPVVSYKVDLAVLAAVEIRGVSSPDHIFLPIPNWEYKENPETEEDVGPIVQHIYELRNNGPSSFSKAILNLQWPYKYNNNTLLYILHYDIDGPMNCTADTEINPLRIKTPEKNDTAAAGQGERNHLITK
T2 sequence (P43406 887-1044 limits assumed): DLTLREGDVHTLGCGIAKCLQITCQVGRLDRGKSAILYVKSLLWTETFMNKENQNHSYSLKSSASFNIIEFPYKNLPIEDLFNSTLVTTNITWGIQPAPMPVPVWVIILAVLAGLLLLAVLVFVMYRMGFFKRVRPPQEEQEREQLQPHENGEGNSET
T2 sequence (O54890 26-787): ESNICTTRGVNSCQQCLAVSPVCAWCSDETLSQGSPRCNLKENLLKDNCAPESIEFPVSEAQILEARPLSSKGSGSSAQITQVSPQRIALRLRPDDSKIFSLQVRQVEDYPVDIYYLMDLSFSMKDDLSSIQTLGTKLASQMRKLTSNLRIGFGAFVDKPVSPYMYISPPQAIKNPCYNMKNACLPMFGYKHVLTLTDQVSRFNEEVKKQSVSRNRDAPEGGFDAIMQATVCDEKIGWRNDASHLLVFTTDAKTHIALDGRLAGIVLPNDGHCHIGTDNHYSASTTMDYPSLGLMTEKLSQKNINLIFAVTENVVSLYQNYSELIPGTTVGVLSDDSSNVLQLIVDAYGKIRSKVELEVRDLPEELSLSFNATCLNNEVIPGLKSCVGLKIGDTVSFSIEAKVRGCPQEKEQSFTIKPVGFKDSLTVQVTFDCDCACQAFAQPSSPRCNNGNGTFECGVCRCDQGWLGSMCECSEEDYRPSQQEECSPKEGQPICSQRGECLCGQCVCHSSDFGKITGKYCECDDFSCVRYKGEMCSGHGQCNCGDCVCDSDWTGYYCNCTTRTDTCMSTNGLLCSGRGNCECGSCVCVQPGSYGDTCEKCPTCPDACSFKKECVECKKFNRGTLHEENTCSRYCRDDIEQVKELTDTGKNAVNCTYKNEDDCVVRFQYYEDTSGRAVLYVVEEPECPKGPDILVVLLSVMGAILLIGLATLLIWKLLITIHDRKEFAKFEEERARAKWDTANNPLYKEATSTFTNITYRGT
Experimental: as §1, §2

T1 sequence (P11688 45-898 limits assumed): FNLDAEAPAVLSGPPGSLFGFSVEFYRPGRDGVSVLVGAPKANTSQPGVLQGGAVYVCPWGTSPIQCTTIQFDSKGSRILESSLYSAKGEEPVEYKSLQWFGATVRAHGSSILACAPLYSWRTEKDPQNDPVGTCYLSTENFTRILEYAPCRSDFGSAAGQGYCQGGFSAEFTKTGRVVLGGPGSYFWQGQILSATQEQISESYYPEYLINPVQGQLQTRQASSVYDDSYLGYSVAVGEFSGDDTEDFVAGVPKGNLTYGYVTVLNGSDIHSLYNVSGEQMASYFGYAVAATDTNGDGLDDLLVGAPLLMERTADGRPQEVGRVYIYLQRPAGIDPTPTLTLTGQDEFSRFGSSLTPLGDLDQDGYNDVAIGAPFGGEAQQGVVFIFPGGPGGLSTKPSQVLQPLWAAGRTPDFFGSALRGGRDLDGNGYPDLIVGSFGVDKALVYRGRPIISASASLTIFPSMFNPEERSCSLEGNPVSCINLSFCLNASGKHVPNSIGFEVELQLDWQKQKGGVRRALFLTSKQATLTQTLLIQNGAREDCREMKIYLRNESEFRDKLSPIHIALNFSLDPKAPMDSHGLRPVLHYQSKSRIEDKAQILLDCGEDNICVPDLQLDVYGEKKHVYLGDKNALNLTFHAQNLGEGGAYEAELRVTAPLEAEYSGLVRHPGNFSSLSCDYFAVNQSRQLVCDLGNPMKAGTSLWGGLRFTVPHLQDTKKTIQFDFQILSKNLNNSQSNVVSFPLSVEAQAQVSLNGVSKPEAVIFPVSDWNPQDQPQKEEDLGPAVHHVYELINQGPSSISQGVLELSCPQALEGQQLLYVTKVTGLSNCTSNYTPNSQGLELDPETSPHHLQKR
T1 sequence (P11688 899-1053 limits assumed): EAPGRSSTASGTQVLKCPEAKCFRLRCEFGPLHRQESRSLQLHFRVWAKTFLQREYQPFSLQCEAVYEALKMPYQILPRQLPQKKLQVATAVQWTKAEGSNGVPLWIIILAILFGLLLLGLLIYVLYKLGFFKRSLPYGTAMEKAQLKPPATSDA
T1 sequence (P09055 21-798): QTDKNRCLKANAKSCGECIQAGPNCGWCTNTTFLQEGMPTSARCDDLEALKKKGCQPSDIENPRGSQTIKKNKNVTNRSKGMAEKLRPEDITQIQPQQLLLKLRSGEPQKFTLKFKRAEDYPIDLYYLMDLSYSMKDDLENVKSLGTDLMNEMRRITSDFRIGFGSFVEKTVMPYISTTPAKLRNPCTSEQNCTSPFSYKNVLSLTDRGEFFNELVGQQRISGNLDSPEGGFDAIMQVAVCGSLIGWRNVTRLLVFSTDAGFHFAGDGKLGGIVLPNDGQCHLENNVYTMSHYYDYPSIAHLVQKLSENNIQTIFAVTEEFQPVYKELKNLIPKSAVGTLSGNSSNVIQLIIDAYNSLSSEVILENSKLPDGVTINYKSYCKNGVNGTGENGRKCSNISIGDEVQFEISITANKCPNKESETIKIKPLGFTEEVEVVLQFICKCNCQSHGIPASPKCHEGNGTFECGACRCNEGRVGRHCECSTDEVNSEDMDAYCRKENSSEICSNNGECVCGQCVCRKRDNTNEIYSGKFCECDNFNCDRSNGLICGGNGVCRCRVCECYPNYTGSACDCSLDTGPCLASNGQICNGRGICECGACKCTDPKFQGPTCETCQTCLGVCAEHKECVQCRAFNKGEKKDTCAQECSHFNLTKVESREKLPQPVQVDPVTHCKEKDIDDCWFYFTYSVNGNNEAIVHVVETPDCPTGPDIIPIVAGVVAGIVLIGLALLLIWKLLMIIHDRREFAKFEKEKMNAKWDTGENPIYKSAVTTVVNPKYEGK

Row | Substance | bound α5β1 integrin staining (α5β1 integrin) | bound αvβ3 integrin staining (αvβ3 integrin)
1 | FNIII7-10: monobiotinylated recombinant fibronectin fragment spanning the 7-10th type III repeats of fibronectin; α5β1 integrin ligand | robust, well-defined adhesive structures containing α5β1 integrins | minimal αvβ3 binding
2 | GRGDSPC [RGD peptide, linear RGD oligopeptide purchased from BACHEM; primarily supports αvβ3-mediated adhesion, reference compound] | little staining for α5β1 | clustering of αvβ3
